The text below walks through data of patent publication US20170107293A1 (BIOINVENT INTERNATIONAL, published 2017).

In one assay the target is T1, human FcγRIIB on cells (human, UniProt P31994 43-310).
T1 construct: whole, on cells; also called hFcγRIIB; CD32B
T1 sequence (looked up): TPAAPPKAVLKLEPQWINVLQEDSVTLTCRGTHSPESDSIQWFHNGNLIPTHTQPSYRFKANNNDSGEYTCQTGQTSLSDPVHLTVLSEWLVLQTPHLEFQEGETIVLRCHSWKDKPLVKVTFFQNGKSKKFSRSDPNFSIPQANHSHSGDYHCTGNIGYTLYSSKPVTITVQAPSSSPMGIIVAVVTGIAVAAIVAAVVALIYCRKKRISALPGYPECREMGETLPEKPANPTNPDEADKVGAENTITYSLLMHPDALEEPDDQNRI
In words: flow cytometry, mAb at 0.1, 1 and 10 µg/ml on B cells, MFI.

Assay [1] addresses T2, Soluble hFcγRIIB (R & D Systems) (human, UniProt P31994 46-217).
T2 construct: Bought reagent; also called hFcγRIIB fusion protein
T2 sequence (looked up): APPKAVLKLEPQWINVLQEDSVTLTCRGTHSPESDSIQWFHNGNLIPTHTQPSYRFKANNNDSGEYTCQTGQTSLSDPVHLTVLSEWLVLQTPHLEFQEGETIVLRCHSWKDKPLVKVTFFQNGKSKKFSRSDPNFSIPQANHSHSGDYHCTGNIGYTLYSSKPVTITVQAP
In words: SPR (Biacore T100), mAb immobilised on CM5, soluble hFcγRIIB injected, 1:1 model; column headed KA (1/MS). The method, then:
(§1) A BIAcore T100 analyzer (GE Healthcare, UK) was used to determine the binding affinity of the hFcγRIIB mAb, as described elsewhere.²⁵ mAb were immobilized onto a CM5 sensorchip (GE Healthcare, UK), using standard amine coupling according to the manufacturer's instructions. Soluble hFcγRIIB (0.16-100 nM; R & D Systems, UK) was injected for 5 minutes and dissociation monitored for 10 minutes. Background binding to the control flow cell was monitored and subtracted automatically. The KD values were calculated from the 1:1 binding model using the BIAcore T100 Evaluation software.
A general note: SPR reads the build-up and loss of mass on a sensor chip optically.

Another assay concerns the target T3, human FcγRIIA on cells (human, UniProt P12318 34-317).
T3 construct: whole, on cells; also called hFcγRIIA; FcγRIIA^+ve CHO
T3 sequence (looked up): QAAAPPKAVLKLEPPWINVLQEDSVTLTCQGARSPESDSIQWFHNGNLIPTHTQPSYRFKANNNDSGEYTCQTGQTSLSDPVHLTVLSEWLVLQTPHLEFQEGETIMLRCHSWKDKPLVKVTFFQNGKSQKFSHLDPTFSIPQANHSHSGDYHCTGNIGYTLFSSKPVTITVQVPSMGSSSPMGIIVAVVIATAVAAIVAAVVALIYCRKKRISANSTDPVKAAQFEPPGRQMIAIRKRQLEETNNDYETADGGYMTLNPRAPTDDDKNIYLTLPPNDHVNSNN
In words: binding to FcγRIIA-transfected CHO-k1 cells.

For assay [2], the target named is T2, Soluble hFcγRIIB (R & D Systems). In words: SPR (Biacore T100), mAb immobilised on CM5, soluble hFcγRIIB injected, 1:1 model; column headed KD (1/s). The method, then:
as §1

The target is the same in assay [3]. In words: SPR (Biacore T100), mAb immobilised on CM5, soluble hFcγRIIB injected, 1:1 model. The method, then: as §1

B1: 1C04 (antibody, human IgG1, V domains shown)
VH: EVQLLESGGGLVQPGGSLRLSCAASGFTFSSYAMSWVRQAPGKGLEWVSSISDSGAGRYYADSVEGRFTISRDNSKNTLYLQMNSLRAEDTAVYYCARTHDSGELLDAFDIWGQGTLVTVSS
VL: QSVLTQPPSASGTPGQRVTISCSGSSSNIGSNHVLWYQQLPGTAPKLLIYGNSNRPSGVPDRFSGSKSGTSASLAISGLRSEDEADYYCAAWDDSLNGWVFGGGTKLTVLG
notes: Only VH/VL tied to the clone; also called Antibody clone: 1C04
As for B1, in the assay with human FcγRIIB on cells, the binding result is “no binding (tested: 10 µg/ml)”.

B2: 2A09 (antibody, human IgG1, V domains shown)
VH: EVQLLESGGGLVQPGGSLRLSCAASGFTFSNAWMSWVRQAPGKGLEWVAYISRDADITHYPASVKGRFTISRDNSKNTLYLQMNSLRAEDTAVYYCTTGFDYAGDDAFDIWGQGTLVTVSS
VL: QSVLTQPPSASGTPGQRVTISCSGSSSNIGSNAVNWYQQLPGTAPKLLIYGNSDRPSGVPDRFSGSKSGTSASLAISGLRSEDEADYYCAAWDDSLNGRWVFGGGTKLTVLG
notes: Only VH/VL tied to the clone; also called Antibody clone: 2A09
For the molecule B2, in the assay with human FcγRIIB on cells, the binding result was “no binding (tested: 10 µg/ml)”.

B3: 1E05 (antibody, human IgG1, V domains shown)
VH: EVQLLESGGGLVQPGGSLRLSCAASGFTFSTYAMNWVRQVPGKGLEWVAVISYDGSNKNYVDSVKGRFTISRDNSKNTLYLQMNSLRAEDTAVYYCARNFDNSGYAIPDAFDIWGQGTLVTVSS
VL: QSVLTQPPSASGTPGQRVTISCTGSSSNIGAGYDVHWYQQLPGTAPKLLIYDNNSRPSGVPDRFSGSKSGTSASLAISGLRSEDEADYYCAAWDDSLGGPVFGGGTKLTVLG
notes: Only VH/VL tied to the clone; also called Antibody clone: 1E05
Regarding B3, the binding result with human FcγRIIB on cells is “no binding (tested: 10 µg/ml)”.

B4: 6G08 (antibody, human IgG1, V domains shown)
VH: EVQLLESGGGLVQPGGSLRLSCAASGFTLSSYGISWVRQAPGKGLEWVSGISGSGGNTYYADSVKGRFTISRDNSKNTLYLQMNSLRAEDTAVYYCASSVGAYANDAFDIWGQGTLVTVSS
VL: QSVLTQPPSASGTPGQRVTISCTGSSSNIGAGYDVHWYQQLPGTAPKLLIYGDTNRPSGVPDRFSGSKSGTSASLAISGLRSEDEADYYCAAWDDSLNGPVFGGGTKLTVLG
notes: hFcγRIIB mAb (agonistic), human IgG1 (WT); Only VH/VL tied to the clone; also called Antibody clone: 6G08
B4 came in with a kon in assay [1] of 472000 M⁻¹ s⁻¹. For the same molecule, the binding result with human FcγRIIA on cells is given as “no binding”. Further, the koff in assay [2] is 0.337 s⁻¹. Further, in assay [3], the affinity, expressed as Kd, was 713 nM.

Broadly, the kon is a measure of how fast the partners come together. Higher therefore signals faster complex formation. A word on the koff: it is the first-order rate constant of dissociation. In general, Kd refers to a measure of binding affinity in units of concentration. A lower Kd goes with tighter binding.
